Data as given in US20140228540A1, “POLYPEPTIDES THAT BIND TISSUE INHIBITOR OF METALLOPROTEINASE TYPE THREE (TIMP-3), COMPOSITIONS AND METHODS” (Amgen Inc., priority 2009, published 2014).

T1: HuTIMP-3 (Homo sapiens, UniProt P35625)
T1 sequence (P35625 24-211): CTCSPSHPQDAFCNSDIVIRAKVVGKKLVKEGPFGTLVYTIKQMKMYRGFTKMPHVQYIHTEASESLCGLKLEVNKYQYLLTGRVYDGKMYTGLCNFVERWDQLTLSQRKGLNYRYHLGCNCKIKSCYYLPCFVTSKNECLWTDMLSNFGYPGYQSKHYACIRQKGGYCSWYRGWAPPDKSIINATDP

T2: MuTIMP-3 (Mus musculus, UniProt P39876)
T2 sequence (P39876 24-211): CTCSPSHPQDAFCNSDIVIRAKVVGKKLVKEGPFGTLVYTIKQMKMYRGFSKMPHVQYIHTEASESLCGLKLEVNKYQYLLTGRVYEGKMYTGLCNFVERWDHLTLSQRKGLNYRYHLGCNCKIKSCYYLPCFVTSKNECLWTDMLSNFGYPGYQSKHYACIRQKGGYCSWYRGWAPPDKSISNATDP

T3: inhibition of MMP-13 by TIMP-3 (Homo sapiens, UniProt P35625)
T3 construct: purchased Calbiochem/EMD (active MMP-13)
T3 sequence (P35625 24-211): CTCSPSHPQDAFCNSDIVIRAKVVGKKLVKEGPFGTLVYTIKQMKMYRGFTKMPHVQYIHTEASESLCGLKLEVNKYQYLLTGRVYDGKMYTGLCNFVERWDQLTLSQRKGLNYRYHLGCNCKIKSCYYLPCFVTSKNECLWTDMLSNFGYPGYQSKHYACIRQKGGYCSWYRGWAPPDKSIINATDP


Columns and labels:
HuTIMP-3 [1] = target: T1, HuTIMP-3; test: Indirect binding ELISA with TIMP-3 presented via anti-TIMP-3 neutralizing antibody; conditions: human TIMP-3
Method: After incubation, the plate contents are discarded and 250 microL/well of blocking buffer (1% BSA, TBS [pH 7.5], 1 mM CaCl2) is added to the plate which is incubated with shaking for 1 hour at room temperature. The plate is then washed three times with 200 microL/well with wash buffer 1 (TBS [pH 7.5], 1 mM CaCl2) followed by the addition of 100 microL of 20 nM recombinant human TIMP-3. The plate is incubated at room temperature for 1 hour. The LRP-1 peptides are titrated as described previously, and 100 microL/well of the diluted LRP-1 peptide titration is added to the TIMP-3 coated plate and allowed to bind for 1.5 hour at room temperature with shaking. After incubation, the plate is washed and the ELISA performed substantially as described previously for the direct binding ELISA.

HTB-94 cells = test: Accumulation of TIMP-3 in the medium of cultured HTB-94 cells; type: cell-based
Method: This example describes an assay to evaluate the accumulation of TIMP-3 in the medium of cultured cells. HTB-94™ cells (a chondrocytic cell line available from the American Type Culture Collection, Manassas, Va.) are plated to 24-well tissue culture plates at 1×10̂5 cells per well in 1 ml growth medium (RPM11640, 10% FBS, 1% PSG), and incubated at 37 C, 5% CO2 overnight. The cells are then washed once with PBS, and the wells are replenished with 250 microL serum-free medium (RPM11640, 1% PSG; designated SF in the tables below) to which is added the polypeptide being tested or a control (for example medium containing heparin, 1 mg/ml). Proteins to be tested are diluted to appropriate concentrations, for example as shown in the Tables below, and added to the cells. Cells are then incubated at 37 C, 5% CO2 for two additional days, day 2 conditioned medium (CM) samples are collected and clarified by centrifugation (i.e., for 5 minutes at 10K RPM) and the supernatant fluid is collected and stored at −20 C until assayed. Analysis is done on 100 microL CM samples, either by Western blot or by using a standard human TIMP-3 ELISA as per the manufacturer's protocol (R&D Systems Inc., Minneapolis, Minn.).

MuTIMP-3 = target: T2, MuTIMP-3; test: Directly coated TIMP-3 binding ELISA (mouse); conditions: mouse TIMP-3; for EC50: direct
HuTIMP-3 [2] = target: T1, HuTIMP-3; test: Directly coated TIMP-3 binding ELISA (human); conditions: human TIMP-3; for EC50: direct
[3] = system: biotinylated recombinant human or mouse TIMP-3; test: TIMP-3 AlphaScreen binding assay
Method: Peptides were also evaluated by AlphaScreen® (Amplified Luminescent Proximity Homogeneous Assay; PerkinElmer, Waltham, Mass.) a very sensitive non-radioactive homogeneous assay technology that allows the screening of a large range of biological interactions and activities, substantially according to the manufacturer's instructions. Briefly, all dilutions are made in AlphaScreen® Buffer: [40 mM HEPES pH 7.5, 100 mM NaCl, 1 mM CaCl2, 0.1% BSA, 0.05% Tween-20]. The LRP-1 peptides are titrated in a separate polypropylene 96-well plate (Falcon) starting at 4 microM concentration and then diluted serially 3-fold for 12-points, with the last point buffer only. First 2 microL/well of protein titration curve is added to white, small volume, 384-well assay plate (Greiner Bio-One, Stonehouse, UK) in duplicate. Next, 2 microL of biotinylated (AFS, in-house conjmicroGation) recombinant human or mouse TIMP-3, is added at 12 nM (or 3 nM final assay concentration) to the assay plate. Lastly, in subdued light 4 microL of a mixture of streptavidin donor beads, anti-mouse IgG acceptor beads (PerkinElmer) both diluted to 20 microG/mL (10 microG/mL final assay concentration) and 2 nM (1 nM final concentration) rat-anti-HA (clone3F10)-HRP (Roche Diagnostics) is added to the plates. Plates containing 8 microL final assay volume are covered with TopSeal A (to prevent evaporation), spun quickly at 1000 rpm, and incubated overnight (covered with foil to prevent light exposure) before reading on Fusion plate reader (PerkinElmer) using AlphaScreen® parameters (excitation 680 nm and emission 520-620 nm). Data is analyzed using GraphPad Prism 4.01 software. Binding to TIMP-3 is reported as total signal (cps).

A549 cells = test: Binding and internalization of exogenous TIMP-3 by confocal microscopy; type: cell-based, human; conditions: in the presence of heparin
Method: This example describes the internalization of exogenous TIMP-3 as examined by confocal microscopy. A549 cells (a continuous tumor-cell line from a human lung carcinoma with properties of type II alveolar epithelial cells, either wild-type or A549 cells lacking the LRP-1 gene) were incubated typically with 1 microG/ml TIMP-3 for 30 minutes at 4 degrees, with or without various pre-treatments (including heparin), then washed, fixed and stained with a fluorescently labeled anti-TIMP-3 antibody, or washed and then incubated further at 4 or 37 degrees before fixation and staining. Cells were also assayed for the accumulation of TIMP-3 in the culture medium, by Western blot or ELISA, substantially as described herein.

TIMP-3 = test: Binding ELISA of LRP-1 peptides to TIMP-3 (Table 2; format and species not specified); design: species or system human or mouse
[4] = system: cultured chondrocytic cells; conditions: cited from earlier work
[5] = target: T3, inhibition of MMP-13 by TIMP-3; test: MMP-13 inhibition assay: effect of test molecules on inhibition of MMP-13 by TIMP-3; type: biochemical
Method: Briefly, test molecules are titrated in assay buffer and added to black polystyrene 96 or 384 well assay plate (Griener Bio-One, Germany). The concentrations of the test molecules are dependant on the activity of the molecule; for example, titrations may begin at 1000, 2000 or 3000 nM and use five-fold dilutions for titration, although other types of titrations may be used or a single concentration may be tested. […] Active MMP-13 (Calbiochem/EMD,) is diluted in assay buffer to give a final assay concentration of 1.46 nM added to the test molecule titration/TIMP-3 mixture and incubated for 10 minutes at room temperature in a final volume of 50 microL. Alternatively, pro-MMP-13 (R & D Systems, Minneapolis, Minn.) is activated with aminophenyl mercuric acetate (APMA; Calbiochem/EMD,) for 2 hours at 37 degrees C., and used in the assay.
A fluorogenic substrate such as Mca-PLGL-Dpa-AR-NH2 Fluorogenic MMP Substrate or Mca-KPLGL-Dpa-AR-NH2 Fluorogenic Peptide Substrate (R & D Systems) is prepared to a final assay concentration of 20 microM in assay buffer, and added to the MMP-13 enzyme/huTIMP-3/test molecule solution. MMP-13 activity is measured kinetically for 20 minutes using Molecular Devices fluorescent plate reader. The effect of the molecules being tested is expressed as percent of expected maximum TIMP-3 inhibition of MMP-13 enzymatic activity.

Row | EC50 (MuTIMP-3) [µM] | EC50 (HuTIMP-3 [2]) [µM] | AlphaScreen total signal (cps) Assay 1 [3] | AlphaScreen total signal (cps) Assay 2 [3] | Molecule | TIMP-3 (ng/ml) in conditioned medium (HTB-94 cells; Table 6, peptides 2 microM) [ng/mL] | TIMP-3 (ng/ml) in conditioned medium (HTB-94 cells; Table 7, peptides 2 microM) [ng/mL] | further results
1 | > 1 | > 1 | 2,200 cps | – | LA7: LRP-1 peptide monomer, amino acids 1015- (end not printed) | 0.90 | – | EC50 (HuTIMP-3 [1]): > 1 µM
2 | > 1 | > 1 | 2,200 cps | – | LA28: LRP-1 peptide monomer, amino acids 3613-3653 | – | 0.99 | –
3 | – | > 1 | 6,000 cps | 4,000 cps | LA5-6: LRP-1 peptide multimer, amino acids 931-1014 | – | 2.38 | –
4 | – | > 1 | 110,000 cps | 100,000 cps | LA8-10: LRP-1 peptide multimer, amino acids 1062- (end not printed) | – | 3.91 | –
5 | > 1 | – | 2,200 cps | 2,000 cps | LA15: LRP-1 peptide monomer, amino acids 2696- (end not printed) | 1.29 | – | –
6 | – | – | 2,200 cps | 2,000 cps | LA4: LRP-1 peptide monomer, amino acids 895-930 | 1.07 | – | EC50 in TIMP-3 Binding ELISA, Indirect HuTIMP-3 (HuTIMP-3 [1]): no binding; EC50 in TIMP-3 Binding ELISA, Direct MuTIMP-3 (MuTIMP-3): no binding; EC50 in TIMP-3 Binding ELISA, Direct HuTIMP-3 (HuTIMP-3 [2]): no binding
7 | – | – | – | – | heparin [reference compound] | – | – | Binding of TIMP-3 to the cell surface (A549 cells): decreased; TIMP-3 (ng/ml) in conditioned medium (HTB-94 cells; Table 5, heparin control (1 mg/ml per method)): 10.98 ng/mL; TIMP-3 (ng/ml) in conditioned medium (HTB-94 cells; Table 6, heparin control (1 mg/ml per method)): 14.55 ng/mL; TIMP-3 (ng/ml) in conditioned medium (HTB-94 cells; Table 7, heparin control (1 mg/ml per method)): 26.15 ng/mL; TIMP-3 (ng/ml) in conditioned medium (HTB-94 cells; Table 8, heparin control (1 mg/ml per method)): 17.31 ng/mL
8 | – | – | 2,200 cps | 2,000 cps | LA5: LRP-1 peptide monomer, amino acids 931-975 | 0.94 | – | EC50 (TIMP-3; Assay 2, read-out: Binding ELISA EC50 (nm) Assay 2): 1.08 µM
9 | – | – | – | – | RAP: receptor associated protein, a general inhibitor of LRP-1 (protein, UniProt P30533 35-357, looked up) Alpha-2-macroglobulin …: YSREKNQPKPSPKRESGEEFRMEKLNQLWEKAQRLHLPPVRLAELHADLKIQERDELAWKKLKLDGLDEDGEKEARLIRNLNVILAKYGLDGKKDARQVTSNSLSGTQEDGLDDPRLEKLWHKAKTSGKFSGEELDKLWREFLHHKEKVHEYNVLLETLSRTEEIHENVISPSDLSDIKGSVLHSRHTELKEKLRSINQGLDRLRRVSHQGYSTEAEFEEPRVIDLWDLAQSANLTDKELEAFREELKHFEAKIEKHNHYQKQLEIAHEKLRHAESVGDGERVSRSREKHALLEGRTKELGYTVKKHLQDLSGRISRARHNEL | – | – | levels of TIMP-3 in the medium of cultured chondrocytic cells [4]: increases
10 | – | – | – | – | Cluster II: LRP-1 peptide, amino acids 854-1184 of LRP-1; contains 8 ligand binding domains (protein) CQPGEFACANSRCIQERWKCDGDNDCLDNSDEAPALCHQHTCPSDRFKCENNRCIPNRWLCDGDNDCGNSEDESNATCSARTCPPNQFSCASGRCIPISWTCDLDDDCGDRSDESASCAYPTCFPLTQFTCNNGRCININWRCDNDNDCGDNSDEAGCSHSCSSTQFKCNSGRCIPEHWTCDGDNDCGDYSDETHANCTNQATRPPGGCHTDEFQCRLDGLCIPLRWRCDGDTDCMDSSDEKSCEGVTHVCDPSVKFGCKDSARCISKAWVCDGDNDCEDNSDEENCESLACRPPSHPCANNTSVCLPPDKLCDGNDDCGDGSDEGELCDQ | 8.49 | 13.42 | Binding to TIMP-3 (affinity, in words) (TIMP-3): submicromolar affinity; Effect on TIMP-3's inhibition of MMP-13 (in words) [5]: minimal effect; TIMP-3 (ng/ml) in conditioned medium (HTB-94 cells; Table 5, polypeptide 0.5 microM, listed as C II (prep 1)): 1.99 ng/mL; TIMP-3 (ng/ml) in conditioned medium (HTB-94 cells; Table 5, polypeptide 0.5 microM, listed as C II (prep 2)): 1.35 ng/mL; TIMP-3 (ng/ml) in conditioned medium (HTB-94 cells; Table 5, polypeptide 1 microM, listed as C II (prep 1)): 2.23 ng/mL; TIMP-3 (ng/ml) in conditioned medium (HTB-94 cells; Table 5, polypeptide 1 microM, listed as C II (prep 2)): 1.71 ng/mL; TIMP-3 (ng/ml) in conditioned medium (HTB-94 cells; Table 5, polypeptide 2 microM, listed as C II (prep 1)): 5.18 ng/mL; TIMP-3 (ng/ml) in conditioned medium (HTB-94 cells; Table 5, polypeptide 2 microM, listed as C II (prep 2)): 1.92 ng/mL; TIMP-3 (ng/ml) in conditioned medium (HTB-94 cells; Table 8, polypeptide 0.5 microM): 1.59 ng/mL; TIMP-3 (ng/ml) in conditioned medium (HTB-94 cells; Table 8, polypeptide 1 microM): 1.94 ng/mL; TIMP-3 (ng/ml) in conditioned medium (HTB-94 cells; Table 8, polypeptide 2 microM): 2.76 ng/mL; Accumulation of TIMP-3 in conditioned medium by Western blot (HTB-94 cells; Western blot): enhanced accumulation of TIMP-3
